Data: article PMC5573810

How the values were obtained:
[1] = target: gp120-ferritin (gp120-FR) nanoparticle; test: ELISA
[2] = target: clade-C (ZM109) V1V2-ferritin nanoparticle (V1V2-FR) (HIV-1 ZM109 (clade C) | not stated) (UniProt Q9ZLI1); test: ELISA

PGT121 gave an EC50 [1] of 0.077 µg/mL and an EC50 [2] of 0.87 µg/mL.
